Assay results as given in the DeepSol protein solubility set.

Experiment: soluble on expression in E. coli; label from the status in PepcDB or PDB records

With “MGSDKIHHHHHHMSGLCAKCVDGCTGGCETWLASFRGREVLYPGPFGDITAGAVKDYPVDYSHLNILGYARGAEGLPEGVEPGPDTAIFTNVDTTTEYGWDIKVKMKVPIFTGALGSTEIARKNWDHIAVGAAISGITVVCGENVAGVDPDLELDSNGKVKKSPELDRRIEIYKRYHDGEYGEILIQMNVEDTRLGVAEYVINKHGIETIELKWGQGAKSIGGEIKVRSLERALELKRRGYIVLPDPELPEVQRAFKEGEIKEFERHSRLGFVSKESFLKEVERLRKLGFKRITLKTGAYSAVELAMALRYGAEAKVDLITVDGAPGGTGMSPWPMMNEWGIPTFYLEALTYQFAEKLSRRGIRVPDIAIAGGFSTEDGVLKAIAMGSPYVKAVCMGRALMIPAMVGKNIGEWLKSGNLPKTVSKYGTTVEEIFVTYEELRSRFGEEEVKKLPLGAIGVYTFVQKFKTGLQQLMAGARKFRLSALSRKDLIALTKDAAEISGIPYVMESYRDEAERILEE” as the sequence, how does the “soluble on expression in E. coli” value read?
Its value is “not soluble”.

With “MGSDKIHHHHHHMSIHPALESVGQLFGANLIFRVPRYQRYYAWDAEQIGDFLADLELCLKARAGGNRREHFFGGLVTVRTDVEGSSRQNMEVIDGQQRLASFSMLAAQLRNAAVQLAESVDAAVPDNPKEFLLEFAKTLKAEFERYKDKIKLQVVEIDRLELSKPDLIFFKDLVEGRNPTPSRMSHRLLKQAWDRIGAKLAQIVASENTDVEKAQALSLVDTVMEEDWNPHPHDH” as the sequence, how does the “soluble on expression in E. coli” value read?
The value was “not soluble”.

Which “soluble on expression in E. coli” value does the source give for “MGSDKIHHHHHHMSIKILQPGLFSTVQDLGRKGYEHIGFSGAGAMDQFSFKVAQLLINNDGPAIEYTLIGPTIQFNTQNTFVITGGSVNASLNNKTISMNSVILAEKGDILKIGAITKGARGYLTFGHSINVPPIAESYATHTRSSIGGFKGRKLLANDVITVKINNDFKENIGKTIHLQDDLLPENNIIHILQGPQFEAFSEEARAKIVNHPYLITEQSDRMGYRLEGDSVAPINQADIISEPVALGSVQVPNDGQPIILLNDKQTIGGYTKIATVCKFDLPKLAQMKPQDTIQFKWISFQEAVDKNREQMSLFNEILKSHQKTPIFDTSSLRHTSKKLATILKGDL” here?
Its value is “not soluble”.

Which “soluble on expression in E. coli” value does the source give for “MGSDKIHHHHHHMSIKTFELISTTENGIQLISYVALPEAASDDNPVAGILVAPEWWGVVEHPKNVTERLAKAGYAAVAMDVYGEGKLTSDAAQANMWMEQVLADQDMLMARCRLILNDFSDQLAVDSDNLGAIGYCFGGKIVLDMAREGMPLKAVATFHGNPSPKQPADKQFSAKVLVAHGRDDSMVSMDAIEGLKAELDGADIDYTIDVYDGAKHGFTNPNADERAAKNGVDLGYNETAAKQSWDNMLEFMKDNLA” here?
Its value is “not soluble”.

With “MGSDKIHHHHHHMSILNLFRKNKNKNNIDFNEKSNKSKQTSNNTMTPSQEYNSISTHNVEVKNEINKVLNVSYNDTTNLYELEKQAREKSDALYDIHTNSINKFNPQNNILETDTKPLTSIEKSFLKYIIGENIYEPYIATYWTYEYNINYSYLISKFFNMDYLKISNYIEDLTKLTVSELKEILKSNNIKSTGKKAELIERIEKEISCKDLSNFFNSSNKYYALTDKGKELLKDVRKSVTKNTDLEDQCLELIYIDKYEEAYDLICKYESSKNIQRGININWENHKITPMKIESYKAIKELDINLKDTLLDNIIKSSYILCDMLGNNSKTSILVKRLAGEKIDNIEINNAINSINDVIYNHSTITYNANDSINNKNLHYMDIVKNNKSIPFEVNNKNYNFKINENEIYFFNILKIKMYENELKNNFVFDRMSDGAFNVFDTSDNFIGKVKLQGRKKWIMYMKNEFGSEHIYGELIHLIDGIDAWIKYSKEYLK” as the sequence, how does the “soluble on expression in E. coli” value read?
Its value is “not soluble”.

Which “soluble on expression in E. coli” value does the source give for “MGSDKIHHHHHHMSIYHDVIKSEVFPALGCTEPIAVAYAASLAAERLGAEVETVTASVDPGVFKNGFAVTVPKTGGLKGNVIAAALGALIARPELKMEILSGADERLLAQAELLVSSGRATVALVKERTDLYIDVVVTGGGRTARAVLEGGHTNIVRLECDGRILLNADEPVSAVDSHAYRAVLRQMTFSEMIGLLDDLDQGDLVYLKRGVEMNLRIAEEGKQLTKVGHYVEELVRKGFLLADVVSSSKILTASASDARMAGLPYPVMSSGGSGNQGIVAILVPYNVGMFFHVPEETILRSIALSHLVNAYIKCHTGDLAPICGCAIAAGVGAAVAIVYQQAGPDMHKIDLAVNTIISDIGGMLCDGAKGGCALKVVSSTDAAIRAAYMALNGHGISEEEGFVGKSAEETIHNLSRIADKGMALVDDTMLCIMLQKRSTEP” here?
Its value is “not soluble”.

Which “soluble on expression in E. coli” value does the source give for “MGSDKIHHHHHHMSKIGLTTTVPVEVIYAAGDTPVDLNNIFISDTREAMLRIEEAELAGYPRNVCGWIKGLYATALKSPEIKKIVAVTQGDCSNTHALMETWSEEGIEIIPFAFPYDRDGDMLRLQLEKLITALGTTWDQVREQKVRLDQVRQLAWEIDRLTWQENQVRGFENHLHLVSCSDFNGDPEGFARDLEGFIAEAREREPLNLQFKGRKKRELRLGFMGVPPIMPDLYNFLEEHGARVVFNEVQRQFSMPFATEDIVEQYQLYTYPYNVFGRIEDVAQEAERRQLDGLIHYTQSFCYRQIEDLIVRRRLDYPILNLEGENPTGLDARSKMRLESFLQMLRD” here?
The value was “not soluble”.

For “MGSDKIHHHHHHMSKKVVLTREASKNKPWQTYFSQNGYEVMSIPLIKTQPIKINLTREQQETDWLFLTSANAVEYFFTNQYERSNYKIAVIGEKTKEKLAEFGHEPSFVPSIYQSEVFLEEWLNENPEKTSILLPQSNLSRTIIKDTLIEKGYIVFSIELYETIFPEASKKLLTEQLKLNETQIIVFASPSAWKNFYSIAKSFPAQKEKWHIASIGSITTEAILADGWEVKYQPKTFTMKHLADLIIQEELK”, which “soluble on expression in E. coli” value is on record?
The value was “not soluble”.

Which “soluble on expression in E. coli” value does the source give for “MGSDKIHHHHHHMSKLIETRGLTKKYPGVVALDHVDFDLEPGEVHVLFGENGAGKSTLISMLAGANAPSEGRLLLNGEEVQFESVADAQAKGIYTVFQEFSLIPTLTVAQNIFLGWELRFGPFLDHRAMRARAREMLAELGFDIDPAAIVAQLSRAQQQMVEITKAFHGDLNVLILDEPTASLTDREVDHLFEFVAKLKAQGVGIVYISHRIQEFERIAERVTVLRDGAVIGTVAMAETDEDALVEMMTGRAFDQIYPSITFSPGETLLEVSDLTAPGISGACFQVRRGEVLGVAGLVGSGKSRLFRAVMGLTPVQSGSIRFKGADITNAPTRKIITRGMYYLSPDRKAEGLDLAKNARDNLAVNIISGQRHSGHGPFIPWGAVNARIDQISDHVELHAGYRSKPTSQLSGGNQQKVLFGKCFGQDADLIIFDEPTVGVDMGTRAALYLLIKELAEAGKAIVVISSDLPEAMNIAHRLLVLAHGTITARLSADEMSEDTVLKYFFDETGASQ” here?
The value was “not soluble”.

Which “soluble on expression in E. coli” value does the source give for “MGSDKIHHHHHHMSKNNNPVEQLLKEKPYILLDGALATELERHGRNLDDPLWSARVLLEEPEQIHRVHANYFKIGADCAITSSYQASVAGFSSRGIKEEEAIELMKQTVYLAQQARAETGPAADHALIAGSIGPYGAYLSDGSEYIGHYGVDDAQLEAFHRPRLEALIAAGADVLAFETIPSLQEAKMLFRLLEEFPEQSAWLAFSLRDATHISEGTPLSECIEALGDHPQLAAIGANCFPASIATEFITTLKQLTDVPIIVYPNSGEQYDPVSKTWSGETVRTAFEDIAPEWYAAGARLIGGCCRTTPEQIGEIRKIVHAQ” here?
The value was “not soluble”.

For “MGSDKIHHHHHHMSKSLIRIAPGALTIGKPLPWDVFDSEGNILLRQGYVIQTNSQLEQLFERGRFKPRKIERPKEETFEDLRQRNPFAEYGDLLTTLEVTLNAITSEDPTAQKRLLGLCRMLDKTCQEAPDASLALVHLYSISPTIHEQILFYGILCHFIARQFGLEEKRATVLTAAALTANLALVPVADQLNASNTVLTDDQRAVIRKHPARSIQALTSAGINNKLLLRIIAQHHEQADGSGYPEGLSGSDILPEAEILALAERYVAMITKRAYRNRMNITEARKLIATLADGKFRPAIPRSLLQVLGDHPPGMLVRLVNNEVGVVTRRADRTRGPFVKAIFGPRGNRYNGTFERDTSLLEYNVRAPEEPEIMPSMDFSMLWGFRS”, which “soluble on expression in E. coli” value is on record?
Its value is “not soluble”.

For “MGSDKIHHHHHHMSLCYEEALFLEKDLERLKALRTIAPMNEILDHAEVAALAEGIGKAVLGETITQVIDDYRKQLLGDKSFAASMSHLSRQEITLHLVQELKDKLDAQDSTCLKKLINATGIVLHTNLGRAPLPDSAIGLIQEVNEGYSNLEFDLETGNRGSRHTHIEPLITRLTGAESAMVVNNNAAAVFISLNTLAKQRDVIISRGQQVEIGGSFRIPDIIASSGCTMIEVGTTNKTKPDDYAKAITENTAVLLKVHTSNYKISGFTEEVPLQDLVELGKIKNVLVMEDLGSGCLYDLSKIGLPHEPTVQEVIAGGADLVTFSGDKLLGGPQIGVIAGKKALIDKIKKNSFARIVRCDKSSIAALTAVLKLYMNPEKALAQIPALNMLALKEADLLLRAEELERQLQAALGERCQVEIVDVHDEAGGGSLPDVLLKGKAVSLTIDGLSANRLQELLRQEPIPIICRIVKDKVLLNVRTMSEKEFPLITQTMQNIVG”, which “soluble on expression in E. coli” value is on record?
Its value is “not soluble”.

For “MGSDKIHHHHHHMSLLSVEHLSHGFADKELYEDANFELNKEDHMGIVGQNGAGKSTLIKILTGETLPDKGRIIWQNKVTYGYLDQYADIPKEDTLYEFLTTAYAELFRQRDLMEKYYADYAENLDDKLLEKAGRIQENLDANNFYDIDTEINRVMTGLGLDDIGKDHIVSEMSGGQRSKIILAKLLLQNPDVLILDEPTNYLDTAHISWLADYLNGFEGAFMVISHDYDFLQKVTNCICDVSFNKITKYRGDFQSAMRQKDARKEAQLKAFEKQQVVIEKAENFIRKNKAGQRSTMAKSREKMLNRMEKIDPPSENLKGHFDFPYLDTGSQNAVAVNKLAVGYGKKQLLEPVTFSMSAGEKVAFSGFNGAGKSTLIKSILGVIPALGGEAHFSPSAKVNYFTQELIWDNPKLTPLETIQNQYPKMLPKTIRTKLAKCGINAADTMKPMKQLSGGEQTKVKLALMELIDSNFLIMDEPTNHLDDETKRALSEALQRFKGNLIVVSHEDSFYSQWIDKEINVEKLRLDRE”, which “soluble on expression in E. coli” value is on record?
Its value is “not soluble”.

For “MGSDKIHHHHHHMSLPSIKTTNSYCVVLWCDQGSATINAPDRVVQVMAGDVVLAPHGAFVTGHGVVLPMAFPDFDGGEHTRRLHMGTAWSKRMIFEFSRSLLGETRPSECIAALFDDRARPPRVPEPQAARKVAQKLIAYPADQTPLLEFAQLHNISSRTLQRQFVASTGFTFSEWRAALRVSVAADLLAHDFRIGQVSQMVGFSATSSLTRAFKRHTGDTPSSFTSPRMHAVCEQQPPMIPATTTFARASDDIALWIYSGTATVTTPGYCRFMGAGETVTIPSGTSTRLDVSAGSVALPVPLAAAHDDLTLSDVLAASVNPLAAVELQRLSAQERADVEQVLVPSV”, which “soluble on expression in E. coli” value is on record?
Its value is “not soluble”.

With “MGSDKIHHHHHHMSLQSLKINFAEWLLLKVKYPSQYWLGAADQPVKAAAHQKKIILTLLPSHDNLGDHAIAYASKAFLEQEYPDFDIVEVDMKDIYKSAKSLIRSRHPEDMVFIIGGGNMGDLYRYEEWTRRFIIKTFHDYRVVQLPATAHFSDTKKGRKELKRAQKIYNAHPGLLLMARDETTYQFMKQHFQEKTILKQPDMVLYLDRSKAPAEREGVYMCLREDQESVLQEEQRNRVKAALCEEFGEIKSFTTTIGRRVSRDTREHELEALWSKLQSAEAVVTDRLHGMIFCALTGTPCVVIRSFDHKVMEGYQWLKDIPFMKLIEHPEPERVTAAVNELLTKETSRAGFPRDVYFKGLRDKISGEAQ” as the sequence, how does the “soluble on expression in E. coli” value read?
Its value is “not soluble”.

For “MGSDKIHHHHHHMSMNSEPTPAEAFFLEGNRLLAASECRAAEACFREALALAPDFAEAHANLGMLLDQEGMAAEAERQYRLALALNPRLGHTHSNLGVLLANQKRFEEAESAYLSAIELEPDSPAAWSNLGVLQACRKQEREAEESYRTALRLDPDYHRASFNLSYLLLRQGRFDEGWSLLESRNRRWFARLEEHLPCPRWRGEDLQGRSLLIGLEAGHGDMIQFCRYAPLLKDRGAARITLVCHVALKDLLKTLDGVDTVISFDEILPDDAWDFWTPAMSIPCYCRTRLDSIPARIPYLHADPGLAEQWAAMLEREWAGPEMRIGLAWKGNPHFENDGDRSLPHLKTLEPLGAVAGVRFFSLQKGAGEEEAAQPPAGLPVVNLMRHIAGFADTAALVANLDLVITVDTAVAHLAGALGTECWVLLPEYRTDWRWLTGRTDSPWYPGVMRLFRQPRVGDWETVVAEVGEALRLFAARPRSPRGTR”, which “soluble on expression in E. coli” value is on record?
Its value is “not soluble”.
